Article PMC12069552, “Root stem cell homeostasis in Arabidopsis involves cell-type specific transcription factor complexes” (EMBO Reports, 2025)

T1: BRAVO-mVenus (BRASSINOSTEROIDS AT VASCULAR AND ORGANIZING CENTRE) (Arabidopsis thaliana, UniProt Q6R053 1-323)
T1 construct: BRAVO, R2R3-MYB transcription factor of Arabidopsis thaliana; the CDS amplified from cDNA; FRET donor; source: N. benthamiana abaxial epidermal leaf cells, transiently expressed (β-estradiol inducible promoter), in cells
T1 sequence (looked up): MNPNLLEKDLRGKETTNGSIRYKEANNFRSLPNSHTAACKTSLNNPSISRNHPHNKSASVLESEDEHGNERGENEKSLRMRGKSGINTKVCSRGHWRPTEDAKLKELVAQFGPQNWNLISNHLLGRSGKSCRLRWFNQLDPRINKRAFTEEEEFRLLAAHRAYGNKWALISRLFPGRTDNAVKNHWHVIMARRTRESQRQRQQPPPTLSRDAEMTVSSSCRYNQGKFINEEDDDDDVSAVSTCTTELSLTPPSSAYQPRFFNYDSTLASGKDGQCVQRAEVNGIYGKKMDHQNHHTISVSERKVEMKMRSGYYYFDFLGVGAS

T2: BRAVO-mV(N) PLT3-mV(C) heterodimer (BiFC donor) (Arabidopsis thaliana, UniProt Q6R053 1-323; Q52QU2 1-581)
T2 construct: BRAVO, R2R3-MYB transcription factor of Arabidopsis thaliana; the CDS amplified from cDNA; PLETHORA 3 (PLT3) of Arabidopsis thaliana; the CDS, described in Burkart et al, 2022; The two halves of mVenus are reconstituted in the heterodimer, which serves as FRET donor; source: N. benthamiana abaxial epidermal leaf cells, transiently co-expressed, in cells
T2 sequence (looked up) 1: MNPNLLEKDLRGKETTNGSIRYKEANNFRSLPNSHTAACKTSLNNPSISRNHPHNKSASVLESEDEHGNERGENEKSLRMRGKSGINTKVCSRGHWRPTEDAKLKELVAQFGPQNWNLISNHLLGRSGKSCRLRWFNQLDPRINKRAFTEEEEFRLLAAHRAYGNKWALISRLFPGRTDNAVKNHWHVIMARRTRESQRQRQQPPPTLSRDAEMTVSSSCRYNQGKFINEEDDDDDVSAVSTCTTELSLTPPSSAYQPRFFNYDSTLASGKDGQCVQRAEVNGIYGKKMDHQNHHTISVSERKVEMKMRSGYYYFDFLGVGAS
T2 sequence (looked up) 2: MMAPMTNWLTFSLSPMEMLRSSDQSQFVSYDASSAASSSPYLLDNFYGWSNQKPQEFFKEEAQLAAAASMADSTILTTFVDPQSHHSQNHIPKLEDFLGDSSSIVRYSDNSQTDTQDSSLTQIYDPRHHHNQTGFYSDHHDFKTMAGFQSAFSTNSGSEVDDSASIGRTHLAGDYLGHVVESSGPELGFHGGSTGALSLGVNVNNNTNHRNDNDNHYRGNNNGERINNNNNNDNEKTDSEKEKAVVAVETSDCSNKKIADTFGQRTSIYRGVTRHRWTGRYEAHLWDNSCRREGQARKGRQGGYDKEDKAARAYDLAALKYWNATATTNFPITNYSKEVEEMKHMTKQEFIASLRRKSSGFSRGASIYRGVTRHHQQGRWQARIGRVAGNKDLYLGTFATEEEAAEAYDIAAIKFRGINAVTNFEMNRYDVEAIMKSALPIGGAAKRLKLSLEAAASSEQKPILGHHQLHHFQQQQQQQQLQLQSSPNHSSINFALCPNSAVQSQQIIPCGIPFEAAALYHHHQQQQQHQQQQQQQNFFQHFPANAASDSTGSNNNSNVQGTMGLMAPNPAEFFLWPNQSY

T3: WOX5-mV(N) PLT3-mV(C) heterodimer (BiFC donor) (Arabidopsis thaliana, UniProt Q8H1D2 1-182; Q52QU2 1-581)
T3 construct: WUSCHEL-RELATED HOMEOBOX 5 (WOX5) of Arabidopsis thaliana; the CDS, described in Burkart et al, 2022; PLETHORA 3 (PLT3) of Arabidopsis thaliana; The two halves of mVenus are reconstituted in the heterodimer, which serves as FRET donor; also called heterodimer of WOX5 and PLT3; source: N. benthamiana abaxial epidermal leaf cells, transiently co-expressed, in cells
T3 sequence (looked up) 1: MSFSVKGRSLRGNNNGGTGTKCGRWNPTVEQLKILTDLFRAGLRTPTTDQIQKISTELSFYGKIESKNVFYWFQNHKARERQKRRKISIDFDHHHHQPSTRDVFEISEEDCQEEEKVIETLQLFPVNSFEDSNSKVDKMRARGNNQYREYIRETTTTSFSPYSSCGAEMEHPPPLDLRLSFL
T3 sequence (looked up) 2: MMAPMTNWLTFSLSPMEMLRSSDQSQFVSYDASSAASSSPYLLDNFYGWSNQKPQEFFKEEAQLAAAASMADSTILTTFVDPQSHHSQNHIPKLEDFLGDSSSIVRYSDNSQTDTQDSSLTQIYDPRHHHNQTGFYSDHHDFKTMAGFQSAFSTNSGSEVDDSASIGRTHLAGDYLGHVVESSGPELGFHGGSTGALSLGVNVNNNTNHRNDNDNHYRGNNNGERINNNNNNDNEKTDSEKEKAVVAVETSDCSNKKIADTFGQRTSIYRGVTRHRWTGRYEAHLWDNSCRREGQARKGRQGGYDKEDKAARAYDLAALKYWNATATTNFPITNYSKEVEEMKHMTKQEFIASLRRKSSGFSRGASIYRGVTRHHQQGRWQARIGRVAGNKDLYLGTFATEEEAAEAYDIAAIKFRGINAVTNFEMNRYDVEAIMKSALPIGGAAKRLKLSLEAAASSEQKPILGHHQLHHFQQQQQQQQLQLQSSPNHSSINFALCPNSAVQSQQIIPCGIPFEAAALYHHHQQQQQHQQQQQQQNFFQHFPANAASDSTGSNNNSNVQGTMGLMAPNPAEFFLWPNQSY


Assays:
[1] = biological target: BRAVO-mVenus (BRASSINOSTEROIDS AT VASCULAR AND ORGANIZING CENTRE) (Arabidopsis thaliana) (UniProt Q6R053); assay: FRET or BRET; FRET-FLIM in nuclei of transiently expressing N. benthamiana epidermal leaf cells; mVenus fusion as donor, mCherry fusion as acceptor; 'binding' [%] is the amplitude of the FRET component (number of donor molecules undergoing FRET); binding cutoff 10%; a binding not significantly different from the negative control (mCherry-NLS) is regarded as no interaction
[2] = biological target: WOX5-mV(N) PLT3-mV(C) heterodimer (BiFC donor) (Arabidopsis thaliana) (UniProt Q8H1D2); assay: split reporter (BiFC, NanoBiT) + FRET or BRET; BiFC-FRET-FLIM in nuclei of N. benthamiana epidermal leaf cells; mVenus donor split into mV(N) and mV(C) on two proteins, third protein with mCherry as acceptor; 'binding' [%]; binding cutoff 10%
[3] = biological target: T1, BRAVO-mVenus (BRASSINOSTEROIDS AT …); assay: FRET or BRET; FRET-FLIM in nuclei of transiently expressing N. benthamiana epidermal leaf cells; mVenus fusion as donor, mCherry fusion as acceptor; 'binding' [%] is the amplitude of the FRET component (number of donor molecules undergoing FRET); binding cutoff 10%; a binding not significantly different from the negative control (mCherry-NLS) is regarded as no interaction; details: partners not purified
[4] = biological target: T2, BRAVO-mV(N) PLT3-mV(C) heterodimer …; assay: split reporter (BiFC, NanoBiT) + FRET or BRET; BiFC-FRET-FLIM in nuclei of N. benthamiana epidermal leaf cells; mVenus donor split into mV(N) and mV(C) on two proteins, third protein with mCherry as acceptor; 'binding' [%]; binding cutoff 10%; details: partners not purified
[5] = biological target: T3, WOX5-mV(N) PLT3-mV(C) heterodimer (BiFC …); assay: as above; details: partners not purified

Chain of BES1D-mCherry (BRI1-EMS-SUPPRESSOR 1, BES1D form) (Q9LN63 whole entry): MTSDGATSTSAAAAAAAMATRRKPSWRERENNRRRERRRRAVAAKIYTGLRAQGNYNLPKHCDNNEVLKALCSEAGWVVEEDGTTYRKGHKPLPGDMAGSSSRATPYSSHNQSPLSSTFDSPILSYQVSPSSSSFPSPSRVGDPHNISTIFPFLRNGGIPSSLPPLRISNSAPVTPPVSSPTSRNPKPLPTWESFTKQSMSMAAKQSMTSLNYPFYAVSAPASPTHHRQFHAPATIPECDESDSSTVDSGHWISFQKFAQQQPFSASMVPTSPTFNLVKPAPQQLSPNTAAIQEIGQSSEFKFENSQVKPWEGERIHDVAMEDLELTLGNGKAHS

binding (FRET-FLIM, share of donor molecules undergoing FRET) [1] [%] | binding (FRET-FLIM, share of donor molecules undergoing FRET) [2] [%] | binding (FRET-FLIM, share of donor molecules undergoing FRET) [3] [%] | binding (FRET-FLIM, share of donor molecules undergoing FRET) [4] [%] | binding (FRET-FLIM, share of donor molecules undergoing FRET) [5] [%] | Molecule
– | – | 26.7 ± 9.8 | 21.1 ± 8.3 | 23.3 ± 8.3 | TPL-mCherry (TOPLESS) (natural protein, Arabidopsis thaliana, UniProt Q94AI7 1-1131, looked up, TOPLESS (TPL) of Arabidopsis thaliana; the CDS amplified from cDNA; FRET acceptor; source: N. benthamiana abaxial epidermal leaf cells, transiently expressed (β-estradiol inducible), in cells) MSSLSRELVFLILQFLDEEKFKETVHKLEQESGFFFNMKYFEDEVHNGNWDEVEKYLSGFTKVDDNRYSMKIFFEIRKQKYLEALDKHDRPKAVDILVKDLKVFSTFNEELFKEITQLLTLENFRENEQLSKYGDTKSARAIMLVELKKLIEANPLFRDKLQFPTLRNSRLRTLINQSLNWQHQLCKNPRPNPDIKTLFVDHSCGPPNGARAPSPVNNPLLGGIPKAGGFPPLGAHGPFQPTASPVPTPLAGWMSSPSSVPHPAVSAGAIALGGPSIPAALKHPRTPPTNASLDYPSADSEHVSKRTRPMGISDEVNLGVNMLPMSFSGQAHGHSPAFKAPDDLPKTVARTLSQGSSPMSMDFHPIKQTLLLVGTNVGDIGLWEVGSRERLVQKTFKVWDLSKCSMPLQAALVKEPVVSVNRVIWSPDGSLFGVAYSRHIVQLYSYHGGEDMRQHLEIDAHVGGVNDISFSTPNKQLCVITCGDDKTIKVWDAATGVKRHTFEGHEAPVYSVCPHYKENIQFIFSTALDGKIKAWLYDNMGSRVDYDAPGRWCTTMAYSADGTRLFSCGTSKDGESFIVEWNESEGAVKRTYQGFHKRSLGVVQFDTTKNRYLAAGDDFSIKFWDMDAVQLLTAIDGDGGLQASPRIRFNKEGSLLAVSGNENVIKIMANSDGLRLLHTFENISSESSKPAINSIAAAAAAAATSAGHADRSANVVSIQGMNGDSRNMVDVKPVITEESNDKSKIWKLTEVSEPSQCRSLRLPENLRVAKISRLIFTNSGNAILALASNAIHLLWKWQRNERNATGKATASLPPQQWQPASGILMTNDVAETNPEEAVPCFALSKNDSYVMSASGGKISLFNMMTFKTMATFMPPPPAATFLAFHPQDNNIIAIGMDDSTIQIYNVRVDEVKSKLKGHSKRITGLAFSNVLNVLVSSGADAQLCVWNTDGWEKQRSKVLPLPQGRPNSAPSDTRVQFHQDQAHFLVVHETQLAIYETTKLECMKQWAVRESLAPITHATFSCDSQLVYASFMDATVCVFSSANLRLRCRVNPSAYLPASLSNSNVHPLVIAAHPQEPNMFAVGLSDGGVHIFEPLESEGKWGVAPPAENGSASGAPTAPSVGASASDQPQR
– | – | 22.4 ± 14.1 | 29.8 ± 10.6 | – | WOX5-mCherry (WUSCHEL-RELATED HOMEOBOX 5) (natural protein, Arabidopsis thaliana, UniProt Q8H1D2 1-182, looked up, WUSCHEL-RELATED HOMEOBOX 5 (WOX5), homeodomain transcription factor of Arabidopsis thaliana; the CDS, described in Burkart et al, 2022; FRET acceptor; construct XVE:WOX5-mCherry of Burkart et al, 2022; source: N. benthamiana abaxial epidermal leaf cells, transiently expressed (β-estradiol inducible), in cells) MSFSVKGRSLRGNNNGGTGTKCGRWNPTVEQLKILTDLFRAGLRTPTTDQIQKISTELSFYGKIESKNVFYWFQNHKARERQKRRKISIDFDHHHHQPSTRDVFEISEEDCQEEEKVIETLQLFPVNSFEDSNSKVDKMRARGNNQYREYIRETTTTSFSPYSSCGAEMEHPPPLDLRLSFL

Further lines, the molecule ahead of its results:

Molecule | binding (FRET-FLIM, share of donor molecules undergoing FRET) [1] [%] | binding (FRET-FLIM, share of donor molecules undergoing FRET) [2] [%] | binding (FRET-FLIM, share of donor molecules undergoing FRET) [3] [%] | binding (FRET-FLIM, share of donor molecules undergoing FRET) [4] [%] | binding (FRET-FLIM, share of donor molecules undergoing FRET) [5] [%]
BES1D-mCherry (BRI1-EMS-SUPPRESSOR 1, BES1D form) (from UniProt Q9LN63 1-335) (natural protein) | 27.4 | 18.7 | – | – | –
BRAVO-mCherry (natural protein, Arabidopsis thaliana, UniProt Q6R053 1-323, looked up, BRAVO, R2R3-MYB transcription factor of Arabidopsis thaliana; the CDS amplified from cDNA; FRET acceptor; source: N. benthamiana abaxial epidermal leaf cells, transiently expressed (β-estradiol inducible), in cells) MNPNLLEKDLRGKETTNGSIRYKEANNFRSLPNSHTAACKTSLNNPSISRNHPHNKSASVLESEDEHGNERGENEKSLRMRGKSGINTKVCSRGHWRPTEDAKLKELVAQFGPQNWNLISNHLLGRSGKSCRLRWFNQLDPRINKRAFTEEEEFRLLAAHRAYGNKWALISRLFPGRTDNAVKNHWHVIMARRTRESQRQRQQPPPTLSRDAEMTVSSSCRYNQGKFINEEDDDDDVSAVSTCTTELSLTPPSSAYQPRFFNYDSTLASGKDGQCVQRAEVNGIYGKKMDHQNHHTISVSERKVEMKMRSGYYYFDFLGVGAS | – | – | – | – | 36.3 ± 10.7
